B1: L76P9 E4: acrylodan-labeled mutant FABP probe: Y14L, M18Y, I23T, K27L, L30C, G31I, L72G, A73I, D74A, L78V, W82P, G91S, F93M, A104F, R106L, Y117L, Q115A (protein, UniProt P02693 2-132, looked up, variant Y14L M18Y I23T K27L L30C G31I L72G A73I D74A L78V W82P G91S F93M A104F R106L Y117L Q115A)
Fatty acid-binding protein, …: AFDGTWKVDRNENLEKFYEKMGTNVVLRKCIAHDNLKLTITQEGNKFTVKESSNFRNIDVVFELGVDFAYSGIAGTEVTGTPTMEGNKLVSKMKRVDNGKELIFVLEISGNELIATLTYEGVEAKRIFKKE
modifications: acrylodan label
notes: acrylodan-labeled mutant FABP probe: Y14L, M18Y, I23T, K27L, L30C, G31I, L72G, A73I, D74A, L78V, W82P, G91S, F93M, A104F, R106L, Y117L, Q115A
B2: L33P3 F9: acrylodan-labeled mutant FABP probe: M18L, I23L, G31N, L72W, A73T, D74A, R106A, Q115E, Y117V (protein, UniProt P02693 2-132, looked up, variant M18L I23L G31N L72W A73T D74A R106A Q115E Y117V)
Fatty acid-binding protein, …: AFDGTWKVDRNENYEKFLEKMGLNVVKRKLNAHDNLKLTITQEGNKFTVKESSNFRNIDVVFELGVDFAYSWTAGTELTGTWTMEGNKLVGKFKRVDNGKELIAVAEISGNELIETVTYEGVEAKRIFKKE
modifications: acrylodan label
notes: acrylodan-labeled mutant FABP probe: M18L, I23L, G31N, L72W, A73T, D74A, R106A, Q115E, Y117V
B3: L36P15 B7-1: acrylodan-labeled mutant FABP probe: M18L, I23V, G31N, F55R, L72W, A73T, D74A, R106A, Q115E, Y117V (protein, UniProt P02693 2-132, looked up, variant M18L I23V G31N F55R L72W A73T D74A R106A Q115E Y117V)
Fatty acid-binding protein, …: B2 Fatty acid-binding protein, … with L23V, F55R
modifications: acrylodan label
notes: acrylodan-labeled mutant FABP probe: M18L, I23V, G31N, F55R, L72W, A73T, D74A, R106A, Q115E, Y117V
B4: L35P10C4: acrylodan-labeled mutant FABP probe: M18L, G31N, L36Y, L72W, A73T, D74A, R106A, Q115E, Y117V (protein, UniProt P02693 2-132, looked up, variant M18L G31N L36Y L72W A73T D74A R106A Q115E Y117V)
Fatty acid-binding protein, …: B2 Fatty acid-binding protein, … with L23I, L36Y
modifications: acrylodan label
notes: acrylodan-labeled mutant FABP probe: M18L, G31N, L36Y, L72W, A73T, D74A, R106A, Q115E, Y117V
B5: L128P18 A7: acrylodan-labeled mutant FABP probe: Y14W, M18L, M21I, I23L, K27C, G31G, L38V, S71M, L72W, A73T, D74P, A104I, R106A, Q115E, Y117V (protein, UniProt P02693 2-132, looked up, variant Y14W M18L M21I I23L K27C G31G L38V S71M L72W A73T D74P A104I R106A Q115E Y117V)
Fatty acid-binding protein, …: B2 Fatty acid-binding protein, … with Y14W, M21I, K27C, N31G, L38V, S71M, A74P, A104I
modifications: acrylodan label
notes: acrylodan-labeled mutant FABP probe: Y14W, M18L, M21I, I23L, K27C, G31G, L38V, S71M, L72W, A73T, D74P, A104I, R106A, Q115E, Y117V
B6: L35P22E8: acrylodan-labeled mutant FABP probe: M18L, I23L, G31N, L36R, L38V, L72W, A73T, D74A, R106A, Q115E, Y117V (protein, UniProt P02693 2-132, looked up, variant M18L I23L G31N L36R L38V L72W A73T D74A R106A Q115E Y117V)
Fatty acid-binding protein, …: B2 Fatty acid-binding protein, … with L36R, L38V
modifications: acrylodan label
notes: acrylodan-labeled mutant FABP probe: M18L, I23L, G31N, L36R, L38V, L72W, A73T, D74A, R106A, Q115E, Y117V
B7: L50BP9 D5: acrylodan-labeled mutant FABP probe: M18L, M21F, I23L, K27C, G31N, L72S, A73T, D74A, T76I, Y117N (protein, UniProt P02693 2-132, looked up, variant M18L M21F I23L K27C G31N L72S A73T D74A T76I Y117N)
Fatty acid-binding protein, …: B2 Fatty acid-binding protein, … with M21F, K27C, W72S, T76I, A106R, E115Q, V117N
modifications: acrylodan label
notes: acrylodan-labeled mutant FABP probe: M18L, M21F, I23L, K27C, G31N, L72S, A73T, D74A, T76I, Y117N
B8: L44P1 C10: acrylodan-labeled mutant FABP probe: Y14L, M18L, I23L, G31N, L72G, A73T, D74A, R106W, Q115W, Y117L (protein, UniProt P02693 2-132, looked up, variant Y14L M18L I23L G31N L72G A73T D74A R106W Q115W Y117L)
Fatty acid-binding protein, …: B2 Fatty acid-binding protein, … with Y14L, W72G, A106W, E115W, V117L
modifications: acrylodan label
notes: acrylodan-labeled mutant FABP probe: Y14L, M18L, I23L, G31N, L72G, A73T, D74A, R106W, Q115W, Y117L
B9: L50BP4 E2: acrylodan-labeled mutant FABP probe: M18L, M21F, I23F, K27C, G31N, L72T, A73T, D74A, T76F (protein, UniProt P02693 2-132, looked up, variant M18L M21F I23F K27C G31N L72T A73T D74A T76F)
Fatty acid-binding protein, …: B2 Fatty acid-binding protein, … with M21F, L23F, K27C, W72T, T76F, A106R, E115Q, V117Y
modifications: acrylodan label
notes: acrylodan-labeled mutant FABP probe: M18L, M21F, I23F, K27C, G31N, L72T, A73T, D74A, T76F
B10: L37P1 C3: acrylodan-labeled mutant FABP probe: Y14W, M18L, M21I, I23L, G31N, L38V, L72W, A73T, D74A, R106A, Q115E, Y117V (protein, UniProt P02693 2-132, looked up, variant Y14W M18L M21I I23L G31N L38V L72W A73T D74A R106A Q115E Y117V)
Fatty acid-binding protein, …: B2 Fatty acid-binding protein, … with Y14W, M21I, L38V
modifications: acrylodan label
notes: acrylodan-labeled mutant FABP probe: Y14W, M18L, M21I, I23L, G31N, L38V, L72W, A73T, D74A, R106A, Q115E, Y117V
B11: L9BP6 H3: acrylodan-labeled mutant FABP probe: L38Y, F62W, L72A, Y117A (protein, UniProt P02693 2-132, looked up, variant L38Y F62W L72A Y117A)
Fatty acid-binding protein, …: AFDGTWKVDRNENYEKFMEKMGINVVKRKLGAHDNLKYTITQEGNKFTVKESSNFRNIDVVWELGVDFAYSAADGTELTGTWTMEGNKLVGKFKRVDNGKELIAVREISGNELIQTATYEGVEAKRIFKKE
modifications: acrylodan label
notes: acrylodan-labeled mutant FABP probe: L38Y, F62W, L72A, Y117A
B12: L10P7 A4: acrylodan-labeled mutant FABP probe: Y14L, M18L, G31Y, A73L, Y117A (protein, UniProt P02693 2-132, looked up, variant Y14L M18L G31Y A73L Y117A)
Fatty acid-binding protein, …: B11 Fatty acid-binding protein, … with Y14L, M18L, G31Y, Y38L, W62F, A72L, A73L
modifications: acrylodan label
notes: acrylodan-labeled mutant FABP probe: Y14L, M18L, G31Y, A73L, Y117A
B13: L118P4 H5: acrylodan-labeled mutant FABP probe: Y14W, M18Q, K27C, L72A, D74Q, R106W (protein, UniProt P02693 2-132, looked up, variant Y14W M18Q K27C L72A D74Q R106W)
Fatty acid-binding protein, …: B11 Fatty acid-binding protein, … with Y14W, M18Q, K27C, Y38L, W62F, D74Q, R106W, A117Y
modifications: acrylodan label
notes: acrylodan-labeled mutant FABP probe: Y14W, M18Q, K27C, L72A, D74Q, R106W

Residue numbers refer to the chain shown, from its start. Numbers in names are those of the source.

A short description of the test: Probe response profile / specificity for different FFAu at 1 nM. In kind it is binding. The settings on record: FFAu giving the largest response to 1 nM of each FFAu; several listed in order of degree of specificity. The source says:
The abbreviations are: arachidonate (AA), docosahexaenoate (DHA), eicosapentaenoate (EPA), laurate (LAU), linoleate (LA), linolenate (LNA), myristate (MA), oleate (OA), palmitate (PA), palmitoleate (POA), stearate (SA), and vaccenate (VA).
Examples of probes used, generally in groups of 10 or more, to determine FFAu profiles in biological samples such as blood plasma or serum from animals and humans or media from microorganisms are shown in Table 2. In the sequences presented in Table 2 and the sequence listing, amino acids are numbered from the first residue of the mature protein. The initiator methionine residue of the wild-type protein is removed by aminopeptidase activity, leaving an alanine as residue 1. Thus, counting backwards and skipping 0, the initiator methionine is at residue position −1. Specificity indicates the FFAu that gives the largest response to 1 nM of each FFAu when one FFAu dominates the profile and more than one when there is a more even distribution of specificity. Where more than one is indicated they are listed in order of degree of specificity. The abbreviations are: arachidonate (AA), docosahexaenoate (DHA), eicosapentaenoate (EPA), laurate (LAU), linoleate (LA), linolenate (LNA), myristate (MA), oleate (OA), palmitate (PA), palmitoleate (POA), stearate (SA), and vacsinate (VA). The sequences indicate mutations relative to SEQ ID NO: 1. This sequence is a mutated rat intestinal fatty acid binding protein with a Glu 131 to Asp substitution and includes a COOH-terminal affininity tag comprising […], Gly 133 and 6 histidines.
The response profile is the fluorescence change as evaluated as (R−Ro)/Ro (ΔR/Ro) for each FFAu added as a complex of the FFA and albumin so that the FFAu concentration is clamped or buffered at 1 nM for every FFAu for which a calibration has been performed. The calculation is performed simply by rearranging equation 2 to solve for ΔR/Ro. […] However all the probes have different profiles and therefore complementary specificities for different FFAu. Abbreviations are as in Table 2.
For B1, the Specificity entry is listed as “OA/VA/SA/LA”.

Turning to B2, the Specificity entry is reported as “DHA/AA”.

Regarding B3, the Specificity entry is recorded as “HA/AA/EPA”.

For the molecule B4, the Specificity entry was “DHA/AA”.

Turning to B5, the Specificity result is reported as “DHA/AA”.

Consider B6, for which the Specificity entry is “DHA/AA”.

With B7, the Specificity entry was “PA/POA/MA”.

Consider B8, for which the Specificity result is recorded as “PA/OA/SA”.

For the molecule B9, the Specificity entry is recorded as “PA/MA”.

Regarding B10, the Specificity result is on record as “AA/DHA/EPA”.

As to B11, the Specificity result was “SA/OA/PA”.

As to B12, the Specificity result is on record as “AA/DHA/OA/EPA/LA”.

With B13, the Specificity entry is on record as “DHA”.

The values above are taken from US10705101B2, “Determination of the unbound free fatty acid profiles in biological and industrial specimens” (priority 2013, dated 2020).
